Source: US20200062856A1 (XDCEXPLORER SHANGHAI, published 2020)
Blank lines part the entries; values can stand above or below the molecule they belong to.

What was measured:
[1] = biological target: mouse TPBG protein, full-length, on the cell surface (mouse) (UniProt Q9Z0L0); test: FACS, CHOk1-mTPBG 3A3 cells
[2] = biological target: human TPBG protein, full-length, on the cell surface (human) (UniProt Q13641); test: FACS, HEK293 clone 293F-hTPBG 5A9
[3] = biological target: cynomolgus TPBG protein, full-length, on the cell surface (cynomolgus) (UniProt Q4R8Y9); test: FACS, CHOk1-cTPBG 3F13G4 cells
[4] = biological target: human TPBG protein, full-length, on the cell surface (human) (UniProt Q13641); test: FACS, HEK293 clone 293F-hTPBG 5E6
[5] = biological target: human TPBG protein, full-length, on the cell surface (human) (UniProt Q13641); test: FACS, HEK293 clone 293F-hTPBG 4A8
[6] = biological target: human TPBG protein, full-length, on the cell surface (human) (UniProt Q13641); test: FACS, HEK293 clone 293F-hTPBG 5C12
[7] = biological target: human TPBG protein, full-length, on the cell surface (human) (UniProt Q13641); test: FACS, HEK293 clone 293F-hTPBG 4C5
[8] = biological target: human TPBG protein, full-length, on the cell surface (human) (UniProt Q13641); test: FACS, HEK293 clone 293F-hTPBG 4G6
[9] = biological target: human TPBG protein, full-length, on the cell surface (human) (UniProt Q13641); test: FACS, HEK293 clone 293F-hTPBG 5G11
[10] = biological target: human TPBG protein, full-length, on the cell surface (human) (UniProt Q13641); test: FACS, HEK293 clone 293F-hTPBG 4E1
[11] = biological target: human TPBG protein, full-length, on the cell surface (human) (UniProt Q13641); test: FACS, HEK293 clone 293F-hTPBG 4G1
[12] = biological target: human TPBG protein, full-length, on the cell surface (human) (UniProt Q13641); test: FACS, HEK293 clone 293F-hTPBG 4B9
[13] = biological target: human TPBG protein, full-length, on the cell surface (human) (UniProt Q13641); test: FACS, CHOk1-hTPBG 3A2F1 cells
[14] = biological target: human TPBG protein, full-length, on the cell surface (human) (UniProt Q13641); test: FACS, HEK293 clone 293F-hTPBG 5D4
[15] = biological target: human TPBG protein, full-length, on the cell surface (human) (UniProt Q13641); test: FACS, HEK293 clone 293F-hTPBG 5E5
[16] = biological target: human TPBG protein, full-length, on the cell surface (human) (UniProt Q13641); test: FACS, HEK293 clone 293F-hTPBG 5H6
[17] = biological target: human TPBG protein, full-length, on the cell surface (human) (UniProt Q13641); test: FACS, HEK293 clone 293F-hTPBG 5G8
[18] = biological target: human TPBG protein, full-length, on the cell surface (human) (UniProt Q13641); test: FACS, HEK293 clone 293F-hTPBG 4C3
[19] = biological target: human TPBG protein, full-length, on the cell surface (human) (UniProt Q13641); test: FACS, HEK293 clone 293F-hTPBG 5A11
[20] = biological target: human TPBG protein, full-length, on the cell surface (human) (UniProt Q13641); test: FACS, HEK293 clone 293F-hTPBG 4A9
[21] = biological target: human TPBG protein, full-length, on the cell surface (human) (UniProt Q13641); test: FACS, HEK293 clone 293F-hTPBG 4H12
[22] = biological target: human TPBG protein, full-length, on the cell surface (human) (UniProt Q13641); test: FACS, HEK293 clone 293F-hTPBG 4E1 (NO 8)
[23] = biological target: human TPBG protein, full-length, on the cell surface (human) (UniProt Q13641); test: FACS, HEK293 clone 293F-hTPBG 4F9
[24] = biological target: T1, cynomolgus TPBG protein, full-length, on the cell surface (cynomolgus, UniProt Q4R8Y9 35-420); test: FACS on CHOk1-cTPBG cells
T1 construct: whole, on cells; also called cTPBG; CHOk1-cTPBG
T1 sequence (looked up): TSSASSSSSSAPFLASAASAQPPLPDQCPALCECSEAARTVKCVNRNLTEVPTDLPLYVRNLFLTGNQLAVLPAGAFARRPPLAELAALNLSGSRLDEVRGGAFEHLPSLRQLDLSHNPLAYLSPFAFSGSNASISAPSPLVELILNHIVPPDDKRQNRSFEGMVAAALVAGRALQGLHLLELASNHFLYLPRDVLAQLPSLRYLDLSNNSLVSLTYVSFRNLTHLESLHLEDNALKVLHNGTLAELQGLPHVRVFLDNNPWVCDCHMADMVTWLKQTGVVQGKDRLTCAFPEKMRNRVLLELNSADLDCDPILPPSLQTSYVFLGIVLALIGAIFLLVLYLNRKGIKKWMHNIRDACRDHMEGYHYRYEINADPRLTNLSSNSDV
Excerpt: (§1) The stable cell lines CHOk1-hTPBG, CHOk1-cTPBG, CHOk1-mTPBG (i.e. the CHOk1-hTPBG 3A2F1, CHOk1-cTPBG 3F13G4 and CHOk1-mTPBG 3A3 shown in Table 6) and CHO-k1 cells were expanded to a 90% of confluency in T-75 cell culture flasks, and the culture medium were removed. Cells were then rinsed twice with HBSS buffer (Hanks Balanced Salt Solution, purchased from Invitrogen) and […] with enzyme-free cell dissociation buffer (Versene solution was purchased from Life technology) and harvested. Harvested cells were rinsed with HBSS buffer twice and counted before diluting with HBSS buffer to 2×10⁶ cells/mL, and 10% goat serum blocking buffer was then added, wherein the percentage is the mass percentage. Cells were incubated on ice for 30 min, and then washed twice with HBSS buffer by centrifugation. […] The plate was washed with the FACS buffer twice by centrifugation, and 100 μL per well of fluorescence (Alexa 488) labeled secondary antibody (purchased from Invitrogen) was then added and incubated on ice for 1 h. […] The results were measured and analyzed by FACS (FACS Calibur, purchased from BD). The data was analyzed by software (CellQuest) to obtain the mean fluorescence intensity (MFI) of the cells, follow by calculating EC50 value by software (GraphPad Prism) analysis and data fitting.

[25] = biological target: T2, mouse TPBG protein, full-length, on the cell surface (mouse, UniProt Q9Z0L0 32-426); test: FACS on CHOk1-mTPBG cells
T2 construct: whole, on cells; also called mTPBG; CHOk1-mTPBG
T2 sequence (looked up): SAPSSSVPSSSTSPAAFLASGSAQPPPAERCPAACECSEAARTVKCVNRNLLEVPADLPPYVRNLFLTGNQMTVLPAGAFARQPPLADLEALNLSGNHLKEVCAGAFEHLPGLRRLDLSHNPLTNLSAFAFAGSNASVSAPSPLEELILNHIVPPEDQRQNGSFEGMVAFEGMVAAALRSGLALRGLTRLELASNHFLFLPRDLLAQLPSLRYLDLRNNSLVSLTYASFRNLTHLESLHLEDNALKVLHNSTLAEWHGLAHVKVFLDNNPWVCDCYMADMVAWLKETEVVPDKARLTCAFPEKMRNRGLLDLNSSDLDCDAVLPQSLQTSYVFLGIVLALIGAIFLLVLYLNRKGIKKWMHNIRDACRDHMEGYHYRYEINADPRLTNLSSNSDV
Excerpt: as §1

[26] = biological target: T3, human TPBG protein, full-length, on the cell surface (human, UniProt Q13641 32-420); test: FACS on CHOk1-hTPBG cells
T3 construct: whole, on cells; Transfected HEK293 (293F-hTPBG clones) and CHO-k1 (CHOk1-hTPBG 3A2F1) cells; also used here for endogenous TPBG on the TPBG-positive tumour lines NCI-H1568, NCI-H1975 and MDA-MB-468 in the killing assays; also called hTPBG; 5T4
T3 sequence (looked up): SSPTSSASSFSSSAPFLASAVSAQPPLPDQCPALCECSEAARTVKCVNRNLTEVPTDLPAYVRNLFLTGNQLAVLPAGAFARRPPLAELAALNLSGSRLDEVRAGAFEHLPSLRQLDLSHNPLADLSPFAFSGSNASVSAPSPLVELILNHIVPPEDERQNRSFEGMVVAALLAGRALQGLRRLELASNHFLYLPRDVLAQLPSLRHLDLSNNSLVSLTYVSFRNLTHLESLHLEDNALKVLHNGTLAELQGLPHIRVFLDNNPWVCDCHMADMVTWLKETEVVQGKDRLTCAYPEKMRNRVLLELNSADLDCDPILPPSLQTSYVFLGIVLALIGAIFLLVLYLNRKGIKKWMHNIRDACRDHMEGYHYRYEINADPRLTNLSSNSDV
Excerpt: as §1

[27] = biological target: T1, cynomolgus TPBG protein, full-length, …; test: FACS on CHOK1-cTPBG cells
[28] = biological target: T3, human TPBG protein, full-length, on the …; test: FACS on CHOK1-hTPBG cells
[29] = biological target: T2, mouse TPBG protein, full-length, on the …; test: FACS on CHO-k1 cells with surface-expressed mouse TPBG, fluorescent secondary antibody, mean fluorescence intensity
[30] = biological target: T4, human TPBG antigen immobilized on a CM5 chip (human, UniProt Q13641 32-355, limits assumed); test: SPR (Biacore), human TPBG antigen immobilized on CM5 chip
T4 sequence (looked up): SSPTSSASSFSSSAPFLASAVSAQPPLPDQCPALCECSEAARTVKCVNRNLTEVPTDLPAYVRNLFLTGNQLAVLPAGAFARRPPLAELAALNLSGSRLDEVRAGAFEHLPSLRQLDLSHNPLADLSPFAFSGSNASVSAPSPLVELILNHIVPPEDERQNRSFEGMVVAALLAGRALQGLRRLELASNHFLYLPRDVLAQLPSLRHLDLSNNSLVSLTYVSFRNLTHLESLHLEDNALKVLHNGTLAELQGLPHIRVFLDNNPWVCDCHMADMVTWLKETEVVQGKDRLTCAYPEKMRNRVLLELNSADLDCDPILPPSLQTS
Protocol: To assess the binding specificity and affinity of the humanized anti-TPBG antibody, Biacore analysis was performed using human TPBG antigen immobilized on a CM5 chip. Biacore technique utilizes the change in the refractive index of surface layer after antibody binding to the TPBG antigen immobilized on the surface layer. The binding was determined by surface plasmon resonance (SPR) through detecting the laser refracted from the surface. Non-specific and specific interactions were distinguished by analysis of signal kinetics binding rate and dissociation rate. Chimeric antibodies 12B12 and 28D4 were used as controls.

[31] = biological target: T5, human TPBG-hFc protein (human, UniProt Q13641 32-355); test: ELISA, coated human TPBG-hFc
T5 construct: range 32-355; Expressed in HEK293 cells, purified on protein A; also called immunogen A; hFc tagged TPBG protein; not shown: human IgG Fc fragment of the pCpC vector
T5 sequence (looked up): T4 sequence (looked up)
Procedure, shortened: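 Plates coated overnight at 4° C. with human TPBG-hFc at 1.0 μg/mL, blocked with PBS/0.01% Tween 20/1% BSA, then purified humanized antibody variants bound 2 h at 37° C. HRP-labeled secondary antibody (2 h, 37° C.) with TMB detection, acid stop, A450 read. EC50 derived from OD450 values.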

Cellular MFI [1]: 135 MFI
Cellular MFI [2]: 53.2 MFI
Cellular MFI [3]: 198 MFI
Cellular MFI [4]: 13.2 MFI
Cellular MFI [5]: 33.4 MFI
Cellular MFI [6]: 75.4 MFI
Cellular MFI [7]: 172 MFI
Cellular MFI [8]: 31.8 MFI
Cellular MFI [9]: 11.3 MFI
Cellular MFI [10]: 145 MFI
Cellular MFI [11]: 131 MFI
Cellular MFI [12]: 126 MFI
Cellular MFI [13]: 798 MFI
Cellular MFI [14]: 70.6 MFI
Cellular MFI [15]: 280 MFI
Cellular MFI [16]: 36.4 MFI
Cellular MFI [17]: 168 MFI
Cellular MFI [18]: 27.2 MFI
Cellular MFI [19]: 166 MFI
Cellular MFI [20]: 204 MFI
Cellular MFI [21]: 9.5 MFI
Cellular MFI [22]: 91.8 MFI
Cellular MFI [23]: 47.7 MFI
Molecule: commercially available TPBG antibody (purchased from Sigma, Lot NO: SAB1404485)

EC50 [24]: 0.59 nM
binding result [25]: no binding
EC50 [26]: 0.65 nM
B1: mouse anti-TPBG monoclonal antibody 12B12C7C3 (antibody, V domains shown)
VH: DVQLVESGGGLVQPGGSRKLSCAASGFTFSNFGMHWVRQAPEKGLEWVAYISSGSTSFYYADTVKGRFTISRDNPKNTLFLQMTSLRSEDTAMYYCSRTNSLLRGFFDAWGAGTTVTVSS
VL: DIVLTQSPASLAVSLGQRATISCRASQSVSSSSYTYLHWYQQKPGQPPKLLIKSASNLESGVPARFSGTGSGTDFTLNIHPVEEEDTATYYCQHSWEIPLTFGAGTKLELK
notes: Mouse antibody purified from hybridoma supernatant; also called 12B12C7C3 (12B12 for short)

EC50 [27]: 0.87 nM
EC50 [28]: 0.37 nM
binding result [29]: no binding (tested: 100 nM)
Kd [30]: < 0.00566 nM
koff [30]: < 1e-05 s⁻¹
kon [30]: 1.77e+06 M⁻¹ s⁻¹
EC50 [31]: 0.193 nM
B2: Humanized antibody 12B12-15 (antibody, V domains shown)
VH: EVQLVESGGGVVQPGRSLRLSCAASGFTFSNFGMHWVRQAPGKGLEWVAYISSGSTSFYYADTVKGRFTISRDNSKNTLYLQMNSLRAEDTAVYYCARTNSLLRGFFDAWGQGTTVTVSS
VL: DIVLTQTPLSLSVTPGQPASISCRASQSVSSSSYTYLHWYLQKPGQPPQLLIKSASNLESGVPDRFSGSGSGTDFTLKISRVEAEDVGVYYCQHSWEIPLTFGQGTKLEIK
notes: also called h12B12-15
